The source of these data is paper PMC4005645, “Molecular basis for the wide range of affinity found in Csr/Rsm protein–RNA recognition”.

Data set [1] concerns the target T1, RsmE (Pseudomonas fluorescens CHA0, UniProt P0DPC3 1-64).
T1 sequence: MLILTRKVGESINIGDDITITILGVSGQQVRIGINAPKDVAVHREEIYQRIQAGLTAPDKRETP
In words: NMR structure; slow exchange; ITC: 300 mM NaCl, 50 mM potassium phosphate pH 8.0, 298 K; NMR: 30 mM NaCl, 50 mM potassium phosphate pH 7.2, 313 K. Particulars: protein: recombinant; tags: C-terminal His tag; chain copies: 2; hairpin.

In data set [2] the target is T1, RsmE. Description: ITC; first RNA on dimer, two-site fit; ITC: 300 mM NaCl, 50 mM potassium phosphate pH 8.0, 298 K; NMR: 30 mM NaCl, 50 mM potassium phosphate pH 7.2, 313 K. The conditions noted are these: protein: recombinant; tags: C-terminal His tag; chain copies: 2; hairpin.
Data set [3] addresses T1, RsmE. Description: ITC; second RNA on dimer, two-site fit; ITC: 300 mM NaCl, 50 mM potassium phosphate pH 8.0, 298 K; NMR: 30 mM NaCl, 50 mM potassium phosphate pH 7.2, 313 K. Particulars: protein: recombinant; tags: C-terminal His tag; chain copies: 2; hairpin.
Data set [4] addresses T1, RsmE. In words: ITC; intermediate affinity; value in figure; ITC: 300 mM NaCl, 50 mM potassium phosphate pH 8.0, 298 K; NMR: 30 mM NaCl, 50 mM potassium phosphate pH 7.2, 313 K. The conditions noted are these: protein: recombinant; tags: C-terminal His tag; chain copies: 2.
Data set [5] addresses T1, RsmE. In words: ITC; two-site fit, high affinity, similar to SL2; values in figure; ITC: 300 mM NaCl, 50 mM potassium phosphate pH 8.0, 298 K; NMR: 30 mM NaCl, 50 mM potassium phosphate pH 7.2, 313 K. Particulars: protein: recombinant; tags: C-terminal His tag; chain copies: 2; hairpin.

GGGUCAUCAGGACGAUGACCC (structured_RNA) [RsmZ SL4]: in the data set with RsmE [1], the binding result is given as “binds”.

Regarding GGGCCAUCAAGGACGAUGGUCC (structured_RNA) [RsmZ SL2], the dissociation constant (Kd) with RsmE [2] amounted to 16 ± 3 nM; in the data set with RsmE [3], 185 ± 3 nM.

Consider GAGCAUGGACGGCGAGACGCCGGGUA (structured_RNA) [hcnA-GGA#3], for which the binding result with RsmE [4] is listed as “binds”. Turning to GGGAUCGCAGGAAGCGAUCCC (structured_RNA) [RsmZ SL3], in the data set with RsmE [1], the binding result is given as “binds”. As for GGGCUUCACGGAUGAAGCCC (structured_RNA) [20nt-RBS (hcnA GGA#5)], the binding result with RsmE [5] is listed as “binds”.

Take GGGUGUCGACGGAUAGACACCC (structured_RNA) [RsmZ SL1]: the binding result with RsmE [1] is “binds”.
